# Experimental data taken from paper PMC6078970, “Nonequilibrium self-assembly dynamics of icosahedral viral capsids packaging genome or polyelectrolyte” (Nature Communications, 2018).
# B1: cowpea chlorotic mottle virus (CCMV) capsid protein, dimeric subunit (natural protein)
# chain: RVVQPVIVEPIASGQGKAIKAWTGYSVSKWTASCAAAEAKVTSAITISLPNELSSERNKQLKVGRVLLWLGLLPSVSGTVKSCVTETQTTAAASFQVALAVADNSKDVVAAMYPEAFKGITLEQLTADLTIYLYSSAALTEGDVIVHLEVEHVRPTFDDSFTPVY
# notes: capsid (coat) protein of cowpea chlorotic mottle virus, extracted from purified virions; 90 dimers make the T = 3 capsid; Protein as it stands in native virions; no tag; also called CCMV subunits; subunits; source: CCMV grown in blackeye cowpea leaves; capsid proteins extracted from purified virions (dialysis against 0.5 M CaCl2, centrifugation at 150,000 x g)
# Molecular target: the molecule itself
# Assay: SAXS (static); purified subunits alone, pH 7.5, ionic strength 0.5 M; radius of gyration 33 Å
protein,measurement,value
B1,stoichiometry N,2
